In patent publication US20040229274A1 (Johns Hopkins, published 2004):
Blank lines part the entries; values can stand above or below the binder they belong to.

Assays:
[1] = biological target: truncated mGluR5 (C-terminal 4 amino acids deleted) expressed in HEK-293 cells (UniProt P31424); assay: bead-linked GST-Homer pull-down from HEK-293 cell extracts, immunoblot
[2] = biological target: mGluR2 transiently expressed in HEK-293 cells (UniProt P31421 19-872); assay: bead-linked GST-Homer pull-down from extracts of transfected HEK-293 cells, immunoblot
Excerpt: (§1) To measure the binding interaction, mGluR5 and mGluR1a were expressed in HEK-293 cells. Cell extracts were mixed with bead-linked GST-Homer and were then eluted with SDS loading buffer. When the C-terminal 4 amino acids of mGluR5 were deleted, binding of the mGluR5 to Homer was reduced by greater than 70% (FIG. 10D, lanes 3 and 4). […] Neither mGluR2 nor mGluR4 bind Homer protein (FIGS. 10B, 10C).
(§2) For experiments examining specificity of Homer binding to metabotropic glutamate receptors, HEK-293 cells were transiently transfected with mGluR1a, mGluR2, mGluR4 or mGluR5 expression constructs, scraped into PBS+1% Triton X100, sonicated 2×10 seconds, centrifuged at 15,000 g for 10 minutes at 4° C., and pre-cleared. Lysate from half of a 10 cm plate was incubated with 50 μl of beads linked to 250 ng of protein and washed as above. Samples were analyzed by western blot analysis using the appropriate polyclonal mGluR antibody. Deletion constructs of Homer were prepared by PCR and cloned as fusion constructs with GST in pGEX (Pharmacia, Piscataway, N.J.).

[3] = biological target: mGluR4 transiently expressed in HEK-293 cells (UniProt P31423 33-912); assay: as above
Excerpt: as §1, §2

[4] = biological target: T1, C-terminal 195 amino acids of mGluR5 encoded by an interacting cDNA of the rat hippocampus library in pPC86 (rat, UniProt P31424 1009-1203); assay: yeast GAL4 two-hybrid screen, selection without leucine, tryptophan and histidine, confirmed by β-galactosidase assay
T1 construct: not shown: GAL4 domain supplied by vector pPC86
Method: In experiments carried out in support of the present invention and described in Example 5 herein, the yeast GAL4 two-hybrid system was used to identify binding partners of the rat Homer protein in a rat brain cDNA library (Chevray and Nathans, 1992). A PCR product of the full-length Homer ORF with flanking SmaI sites was subcloned into the yeast expression vector pPC97. A random primed cDNA library was prepared from seizure stimulated adult rat hippocampus and cloned into the yeast expression vector pPC86. The library contains 2×10⁶ independent cDNAs. A total of 1.5×10⁶ clones were screened. Interacting proteins were identified by selection on plates lacking leucine, tryptophan, and histidine, restreaked and confirmed using a β-galactosidase assay.
The full-length Homer ORF with flanking SmaI sites was subdloned into the yeast expression vector pPC97. A random primed cDNA library was prepared from seizure stimulated adult rat hippocampus and cloned into the yeast expression vector pPC86. The library contains 6×10⁶ independent cDNAs and a total of 1.5×10⁶ were screened. Interacting proteins were identified by colony selection on plates lacking leucine, tryptophan, and histidine and confirmed using a β-galactosidase assay (Ausubel, et al., 1992). […]

[5] = biological target: T2, myc-tagged mGluR5 C-terminus (195 aa) expressed in HEK-293 cells (UniProt P31424 1009-1203); assay: GST-Homer deletion constructs, pull-down of myc-tagged mGluR5 C-terminus, immunoblot for myc
T2 construct: it is put first here; not shown: myc tag
T2 sequence (P31424 1009-1203 limits assumed): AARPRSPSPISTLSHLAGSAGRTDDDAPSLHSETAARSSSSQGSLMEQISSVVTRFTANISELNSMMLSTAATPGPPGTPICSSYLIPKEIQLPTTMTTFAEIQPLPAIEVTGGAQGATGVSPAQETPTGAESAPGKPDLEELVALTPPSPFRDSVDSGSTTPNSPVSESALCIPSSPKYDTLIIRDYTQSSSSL

Sequence of mGluR2 transiently expressed in HEK-293 cells (P31421 19-872 limits assumed): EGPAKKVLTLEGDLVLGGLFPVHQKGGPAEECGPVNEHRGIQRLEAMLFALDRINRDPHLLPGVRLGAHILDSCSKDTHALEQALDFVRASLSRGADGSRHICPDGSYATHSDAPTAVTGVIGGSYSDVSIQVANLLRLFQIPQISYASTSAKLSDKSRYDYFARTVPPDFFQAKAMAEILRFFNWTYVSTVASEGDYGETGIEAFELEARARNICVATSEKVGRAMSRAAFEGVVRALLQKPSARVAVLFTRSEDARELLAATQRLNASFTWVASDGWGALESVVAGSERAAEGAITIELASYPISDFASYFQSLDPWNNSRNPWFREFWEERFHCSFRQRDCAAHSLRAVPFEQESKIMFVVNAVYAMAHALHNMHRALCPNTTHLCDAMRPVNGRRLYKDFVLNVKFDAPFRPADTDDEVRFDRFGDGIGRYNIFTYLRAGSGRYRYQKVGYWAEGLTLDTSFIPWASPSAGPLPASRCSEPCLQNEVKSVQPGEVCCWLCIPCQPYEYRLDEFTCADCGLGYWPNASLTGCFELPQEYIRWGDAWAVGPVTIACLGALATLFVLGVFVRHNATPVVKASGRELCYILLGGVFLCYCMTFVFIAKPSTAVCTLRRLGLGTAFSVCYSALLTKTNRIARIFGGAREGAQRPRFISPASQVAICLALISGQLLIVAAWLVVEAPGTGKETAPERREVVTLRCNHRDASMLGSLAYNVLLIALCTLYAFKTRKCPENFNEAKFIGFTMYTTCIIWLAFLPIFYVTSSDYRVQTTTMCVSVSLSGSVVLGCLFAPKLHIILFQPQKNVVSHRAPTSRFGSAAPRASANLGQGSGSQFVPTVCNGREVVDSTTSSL
Sequence of mGluR4 transiently expressed in HEK-293 cells (P31423 33-912 limits assumed): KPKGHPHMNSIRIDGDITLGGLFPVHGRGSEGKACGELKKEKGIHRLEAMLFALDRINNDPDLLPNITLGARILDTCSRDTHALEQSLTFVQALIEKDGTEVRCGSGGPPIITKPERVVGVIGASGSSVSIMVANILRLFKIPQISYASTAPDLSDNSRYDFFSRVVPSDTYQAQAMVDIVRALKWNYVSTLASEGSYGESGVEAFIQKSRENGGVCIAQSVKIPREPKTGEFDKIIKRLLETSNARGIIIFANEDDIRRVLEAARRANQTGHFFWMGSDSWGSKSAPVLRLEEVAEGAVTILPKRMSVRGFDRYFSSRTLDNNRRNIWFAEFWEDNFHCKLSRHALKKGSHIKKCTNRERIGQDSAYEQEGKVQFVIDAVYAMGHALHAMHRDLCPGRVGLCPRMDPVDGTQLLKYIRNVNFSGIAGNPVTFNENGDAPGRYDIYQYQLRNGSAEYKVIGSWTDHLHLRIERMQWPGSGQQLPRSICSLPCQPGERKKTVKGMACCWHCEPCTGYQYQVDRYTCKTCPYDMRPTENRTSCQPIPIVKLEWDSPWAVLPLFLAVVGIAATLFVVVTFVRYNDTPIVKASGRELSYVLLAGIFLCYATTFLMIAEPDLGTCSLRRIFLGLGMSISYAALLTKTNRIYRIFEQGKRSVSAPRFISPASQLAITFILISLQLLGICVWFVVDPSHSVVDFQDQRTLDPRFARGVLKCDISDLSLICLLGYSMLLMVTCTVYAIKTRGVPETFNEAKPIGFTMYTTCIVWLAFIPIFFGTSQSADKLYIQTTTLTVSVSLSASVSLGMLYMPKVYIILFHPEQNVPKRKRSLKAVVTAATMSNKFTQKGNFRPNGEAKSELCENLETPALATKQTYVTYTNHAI
T1 sequence (P31424 1009-1203): as the sequence (P31424 1009-1203 limits assumed) above

- reduction of binding against full length mGluR5 [1]: > 70%
- binding result [2]: no binding
- binding result [3]: no binding
B1: GST-Homer fusion protein (full length rat Homer, 1-186, fused to glutathione-S-transferase) (other)
chain: MGEQPIFSTRAHVFQIDPNTKKNWVPTSKHAVTVSYFYDSTRNVYRIISLDGSKAIINSTITPNMTFTKTSQKFGQWADSRANTVYGLGFSSEHHLSKFAEKFQEFKEAARLAKEKSQEKMELTSTPSQESAGGDLQSPLTPESINGTDDERTPDVTQNSEPRAEPAQNALPFSHRYTFNSAIMIK
notes: Bacterially expressed from pGEX; GST is put first as usual for pGEX; also called Homer GST fusion protein; Homer-GST fusion protein; not shown: glutathione-S-transferase (GST) encoded by the bacterial vector pGEX (Pharmacia)

- binding result [4]: binds
B2: full-length Homer ORF in yeast expression vector pPC97 (GAL4 two-hybrid fusion) (other)
chain: B1 chain
notes: also called Homer (two-hybrid bait); not shown: GAL4 domain supplied by vector pPC97

- binding result [5]: no binding
B3: GST-Homer deletion construct, Homer fragment 109-186 (N-terminal 108 amino acids deleted) (other, not shown: a dimerising Fc or GST; large carriers; small tags and cut ends)
chain: AARLAKEKSQEKMELTSTPSQESAGGDLQSPLTPESINGTDDERTPDVTQNSEPRAEPAQNALPFSHRYTFNSAIMIK
notes: GST put first as usual for pGEX
